Results reported in the nanobody polyreactivity screen of Harvey et al. (2022).

Assay: yeast display, Sf9 membrane polyspecificity reagent, FACS + sequencing; frameworks hold sequencing errors
Procedure, shortened: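 Galactose-induced (36–48 hours) yeast carrying a synthetic nanobody display library were exposed to 10% biotinylated, detergent-solubilized Sf9 membrane reagent at 4 °C for 1 hour. FACS followed streptavidin microbead enrichment, using low and high (top ~1%) gates for expression (anti-HA) and reagent binding (streptavidin). Colony PCR, MiSeq 2 × 250 sequencing and CDR-length filtering followed. Labels for polyreactivity reflect the gate of origin.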

Sequence | polyreactivity (PSR sort gate)
QVQLVESGGVLVQAGGSLRLSCASSLTISYRYAMGWYRTAPGKERELVAAITSGGGTTYYADSVKGRFTISRDNAKNTVYLQMNSMKPEDTAVYYCAKPRARQAFEYWGQGTQVTVSS | high polyreactivity
QVQLVESGGGLVQAGGSLRLSCAASGYTFAWYAMGWYRQAPGKERELVAAITVSGGSTYYADSVKGRFTISRDNAKNTVYLQMNSLKPEDTAVYYCAAVGKSPSRFGYWGQGTQVTVSS | low polyreactivity
QVQLVESGGGLVQAGGSLRLSCAASGSIFQHNAMGWYRQAPGKERELVATISESGGSTYYADSVKGRFTISRDNAKNTVYLQMNSLKPEDTAVYYCNTDYDYGWWDLGEFDYWGQGTQVTVSS | low polyreactivity
QDQLVDSGGGLVQAGGSLRLSSSASGLIFYKYAMGWYRQAPGKERELVAAISSSGGSTYYADSVKGRFTISRDTAKITVYLQMNSLKPDDTAVYYCAARTNRRGYNYWGQGTQVTVSS | high polyreactivity
QVQLVESGGGLVQAGGSLRLSCAASGSIFYSNAMGWYRQAPGKERELVAAITVGGGRTYYADSVKGRFTISRDNAKYTVYLQMNSLNPEDTAVYYCAADSHASTYDYWGQGTQVTVSS | low polyreactivity
QVQLVESGGGLVQAGGSLRLSCAASGQTFYYYAMGWYRQAPGKERELVAAINSSGGITFYADSVKGRFTISRDNAKNTVYLQMNSLKPEDTAVYYCAAGGRSKRYVYWGQGTQVTVSS | low polyreactivity
QVQLVETGRGLVQAGGSLRLSSAASGSTFGPNAMGWYRQAHGKVRELVAAITWSGSTTYYADSVKGRFTISRDIAKNTVYLQMNSLKPEDTPVYYCAALRGYRSNWRYGYWGQGTQVTVSS | low polyreactivity
QVQLVESGGGLVQEGGSLRLSCAASGRIFVGNAMGWYRQAPGKERELVASMTRGRRTNYADSVKGRFTISRDNAKNTVFFQMNSLKPVDTAVYYCNAPGVTRAYLVGYDYWGQGTQVTVSS | low polyreactivity
QLQLVESGGGLVQAGGSLRLSCAASGSTIDHNAMGWYRQAPGKERELVATISSSGGSTYYADSVKGRFTISRDNAKNTVYFQMNSLKPEDTAGYDCNRYFRRGGRYPYNYWGQGTQVTVSS | high polyreactivity
QVQLVESGGGLVQAGGSLRLSCAASGRIFGTNAMGWYRQAPGKERELVATITRGGGNTYYADSVKGRFTISRDNAKNTVYLQMNSLKPEDTAVYYCAAKFNRFAWYSHYDYWGQGTLVTVSS | low polyreactivity
QVQLVESGGGLVQAGGSLRLSCAASGFIFSWYAMGWYRQAPGKERELVAAISYSGSNTYYADSVKGRFTISRDNAKNTVYLQMNSLKPEDTAVYYCAATLGSRWAIYDYWGQGTQVTVSS | high polyreactivity
QVQLVESGGVLVQAGGSLRLSCAASGSTFFLYMGWYRQAPGKERELVAAITVSGRSTYYADSVKGRFTISRDNAKNTVYLQMNSLKPEDTAVYYCNADWVLRYDYWGQGTQVTVSS | low polyreactivity
QVQLVESGGGLVQAGGSLRLSCAASGSNFVEYAMGWYRQAPGKERELVAGISSGGITSYADSVKGRFTISRDNAKNTVYLQMNSLKPEDTAVYYCATDPYKWFYSSYYLLQEVEYWGQGTQVTVSS | low polyreactivity
QVQLVESGGGLVQAGGSLRLSCAAYGRTFIVNTMGWYRQAPGKERQLVAAITARGGRTYYADSVKGRFTISRDNAKNTVYLQMNSLKPEDTAVYYCNARTPPREAERYYWGQGTQVTVSS | low polyreactivity
QVQLVESGGGLVQAGGSLRLSCAASGRIFAYYAMGWYRQAPGKERELVAAINWSGDGTIYADSVKWRFTISRDNAKNTVYLQMNSLKPQDTAVYYCNADWTSYGFGTRLDYWGQGNQVTVSS | low polyreactivity
QVQLVESGGGLVQAGGSLRLSCAASGRIFWYNAMGWYRQAPGKERELVAVITSGTSTYYADSVKGRFTISRDNAKNTVYLQMNSLKPEDTAVYYCAARYLSRYSERHYYYWGQGTQVTVSS | high polyreactivity
QVQLVESGGGLVQAGGSLRLSCAASGRILARYTMGWYRQAPGKERELVAAISRSSGSTYYADSVKGRFTISRDTAKNTVYLQMNSLKPEDTAVYYCAAYLSYWGQGTQVTVSS | high polyreactivity
QVQLVESGGGLVQAGGSLRLSCAASGSIIGDNAMGWYRPAPGKERELVAAITGGDSTYYADSVKGRFTISRDNAKNTVYLQMNSLKPEDTAVYYCNADRFRGRTVDGDYWGQGTQVTVSS | low polyreactivity
QVQLVESGGGLVQAGGSLRLSCAASGRTFWYYPMGWYRQAPGKEREFVAAISWSGGSTYYADSVKGRFTISRDNAKNTVYLQMNSLKPEDTAVYYCAADRYDSSQFYYWGQGTQVTVSS | low polyreactivity
QVQLVESGGGLVQAGGSLRLSCAASGSTFFLYDKGWYRQAPGKERELVAAITLSGGSTYYADSVKGRFTISRDNAKNTVYLQMNSLNPEDTAVYYCADKRHGSEVGRGRDYWGQGTQVTVSS | high polyreactivity
QVQLVESGGGLVQAGGSLRLSCAASGRTSVINAMGWYRQAPGKERELVATISRGGSTNYADSVKGRFTISRDNAKNTVYLQMNSLIPDDTAVYYCNADEQNESFIWSFTIIYDYWGQGTQVTVSS | low polyreactivity
QVQLVESGGGLVQAGGSLRLSCASSGGTFPYYAMGWYRQAPGKERELVAAINYSCGSTYYADSVKGRFTISRDNAQYTVYLQMTSLKPEDTAVFYCAARYQFYRYDSTYSYWGQGTQVTVSS | high polyreactivity

Sequence | polyreactivity (PSR sort gate)
QVQLVESGGGLVQAGCSLRLSCAASGNSFPSYAMGWYRQAPGKARELVAAITTGGRTYYADSVKGRFTISRDNAKNTVYLQMNSLNPEDTAVYYCAADWGVRYPWYRYYYWGQATQVTVSS | high polyreactivity
QVQLVESWGGLVQAGGSLRLSCAASGRIFDRYAMGWYRQAPGKERELVASISSGGSTYYADSVKGRFTISRDNAKNTVYLQMNSLKPEDTAVYYCNAEARSRRYRYEYWGQGTQVTVSS | high polyreactivity
QVQLVESGGGLVQAGGSLRLSCAASGYTFSRYAMGLYRQAPGKERELVAAISHSAGRTYYADSVKGRFTISRDNAKNTVYLKMNSLKPEDTAVYYCATVLYSVPRYNYWGQGSQVTVSS | high polyreactivity
QVQLVESGGGLVQAGGSLRLSCAASGSIFPYYTMGWYRQAPGKERELVAAITTSDSSTYYADSVKGRFTISRDNAKNTVYLQMNSLKPEDTAVYYCAARYSLYPYYAYDDAYRLYRLRGRDYWGQGTQVTVSS | low polyreactivity
QVQLVESGRGLVQAGGSLRLSCAASGSTFAWNAMGWYRQAPGKERELVAAINSGDSTYYADSVKGLFTISRDNAKNTVYLQMNSLKPEDTAVYYCATKYRGVWYTRGQTYYYWGQGTQVNVSS | high polyreactivity
QVQLVESGGGLVQAGRSLRLSCAASGSTYSLDAMGWYRQAPGKERELVAAISWSDGSTYYADSVKGRFTISRDNAKNTVYLLMNSLKPEDTAVYYCGADSTVRPYVHSGDYWGQCTQVTVSS | low polyreactivity
QVQLVESGGGLVQAGGSLRLSCAASGSTFTPYVMGWYRQAPGKERELVASITGGGGSTYADSVKGRFTISRDNAKNTVYLQMNSLKPEDTAVYYCGARVWRSYNYWGQGTQVTVSS | high polyreactivity
QVQLVESGRGLVQAGGSLRLSCAASGRTFHYNVMGWYRQAPGKERELVAAITNTGGSTYYADSVKGRFTISRDNAKNTVYLQMNSLKPEDTAVYYCAAVIWGRRYGAYPYEYWGQGTQVTVSS | low polyreactivity
QVQLEDSGGGLVQAGGSLRLICAASGSIFGSYAMGWYRHAPGKERELVAAINSGGSTNYADSVKGRFTISRDNAKNTVYLQMNSLKPEDTAVYYCAARLYSNEYRYDYWGQGTQVTVSS | high polyreactivity
QFQLVESGGGLVQAGGSLRLSCAASGSSFTVYAMGWYRQAPGKETELVAAISYVGGSTYYAASVKGRFTISRDNAKNTVYLQMNSLKPEDTAVYYCAADPYYSYGYYHAHGRDVGYWGQGTQVTVSS | low polyreactivity
QVQLVESGGGLVQAGGSLRLSCAASGITFHPYAKGWYRQAPGNEREFVAVISFRGGRTYYADSVKGRFTISRDNAKNNVYLQMNSLKPEDTAVYYCAAQYVSRRYSRYNYWGQGTQVTVSS | high polyreactivity
QVQHVESGGGLVQAGGSLRLSCAASGLTFRVYAMGWYRQEPGKERELVAAITGGGGSTYADSVKGRFTISRENAKNTVYLQMNSLNPDDTAVYYCNIKGYYYKFDYWGQGTQVTVSS | low polyreactivity
QVQLVESGGGLVQAGGSLRLSCAASGRILIPYAMGWYRQAPGKEREFVAGITGSGGRTYYADSVKGRFTISRDNAKNTVYLQMNSLKPEDTAVYYCAADYYYSPTMYYWGQGTQVTVSS | low polyreactivity
QVQLVESGGGLVQAGGSLRLSCAASGRIFPVNTMGWYRQAQGKVRELVAAITSGGGTYYADSVKGRFTISRDNAKNTVYLQMNSLKPEDTAVYYCNAPEGRKPYDSWGQGTQVTVSS | low polyreactivity
QVQLVESGGGLVQEGGSLRLSCAASGFTYYHYAMGWYRHAPGKERELVAAITWSGGDTYYADSVKGRFTISRDNAKNTVYLQMNSLKPDDTAVYYCNADDPPGARYFDSFDYRGDYWGQGTQVTVSS | low polyreactivity
QVQLVESGGGLVQAGGSLRLSCAASGRIFTAYAMGWYRQAPGKERELVAAISSGDSTYYADSVKGRFTISRDNAKNTVSLQMNSLKPEDTAVYYCATGVYPDFEYDSWGQGTQVTVSS | low polyreactivity
QVQLVESGGGLVQAGGSLRLSCAASGSIFITYAMGWYRQPPGKERELVATITSRSGGTYYADSVKGRFTISRDNAQNTVYLQMNSLKPEDTAVYYCNAVYTYPVFHGMGYWGQGTQVTVSS | high polyreactivity
QVQHVESGGCLVQAGGSLRLSCAASGLIIKSYVMGWYRQAPGKERELVAGITGSGGTTYYADSVKGRFTISRDNAKNTVDLQMNSLKPEDTAVYYCDARSRSRPKYDYWGQGTQVTVSS | high polyreactivity
QVQLVESGGGLVQAGGSLRLSCGASGSTSKYYAMGWYRQAPGKERELVAAITWSDVSTYFADSVKGRFTISRDNAKHNVYLQMNSLKPEDTAVYYCNAGYDYWGQGTQVTVSS | low polyreactivity
QVQLVESGGGLVQAGGSLRLSCAASGRIFARYAMRMYRQAPEKERELVDYINSGDNTYYADSVKWRFTISRDNAKNTVYLQMNSLKPDATAVYYCAAVVGRRQSSSSRFEYDYWGQGTQVTVSS | low polyreactivity
QVQLVESGGGLVQAGGSLRLSCAASGFIFRDNTMGWYRQAPGKEREFVAGITKSGGSTYYADSVKGRFTISRDNAKNTVYLQMNSLKPEDTAVYYCAAYVPYTRYDYWGQGTQVTVSS | high polyreactivity
